Earlier results as cited in patent US12509496B2 (Shanghai Minwei Biotechnology Co., LTD, priority 2020, dated 2025).

Details: in the blood; cited from earlier work

dulaglutide
half-life in vivo: 108 to 113 h
